The values that follow are results of earlier work, collected in US11474093B2, “Analysis method of protein-protein interaction and a screening method of protein-protein interaction inhibitors using a nanopore” (Korea Research Institute of Bioscience and Biotechnology, priority 2016, dated 2022).

Read-outs that look alike come from different tables or passages of the source.

The data set deals with MDM2 (Homo sapiens, UniProt Q00987).
MDM2, sequence (Q00987 whole entry): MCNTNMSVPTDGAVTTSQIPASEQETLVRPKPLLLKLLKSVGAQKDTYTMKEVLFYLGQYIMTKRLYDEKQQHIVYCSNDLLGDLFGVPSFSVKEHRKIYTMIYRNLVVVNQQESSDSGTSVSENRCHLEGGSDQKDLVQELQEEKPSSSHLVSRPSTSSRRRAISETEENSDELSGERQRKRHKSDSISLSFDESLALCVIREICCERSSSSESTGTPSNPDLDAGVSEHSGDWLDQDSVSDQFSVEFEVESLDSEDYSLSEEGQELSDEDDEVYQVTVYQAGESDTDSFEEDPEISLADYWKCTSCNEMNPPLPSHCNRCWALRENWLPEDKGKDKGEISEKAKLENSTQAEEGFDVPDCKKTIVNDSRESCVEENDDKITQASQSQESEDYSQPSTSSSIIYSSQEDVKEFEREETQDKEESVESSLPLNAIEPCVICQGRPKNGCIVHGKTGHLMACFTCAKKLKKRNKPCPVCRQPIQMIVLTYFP

A word on the Kd: it is the constant that tells how readily two partners part at equilibrium. On to “p53TAD: residues 1 to 73 of p53 transactivation domain (TAD)”, for which the Kd is 600 nM (read-out: Kd of the interaction between MDM2 and p53TAD); around 600 nM (read-out: dissociation coefficient (Kd) with MDM2).
